Assay results reported in the supplement of paper PMC7125110.
± gives the standard error. For some assays here: This sample holds only a part of the variants without activity.

B1: glmS ribozyme (parent)
chain: AUAAAAGCGCCAGAACUACAGAAAUGUAGUUGACGAGGAGGAGGUUUAUCGAAUUUUCGGCGGAUGCCUCCAAA

Legend:
Conditions in all cases: with glucosamine-6-phosphate
glucosamine-6-phosphate [1] = variants of: B1; test: kcat; higher = faster cleavage; RNA array
In short: (§1)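 On sequenced MiSeq chips, barcoded ribozyme variants were made in situ by E. coli RNA polymerase and followed at 37 °C through a hybridised Cy3 probe. Glucosamine-6-phosphate was flowed in at 40 μM to 10 mM in HEPES/KCl/Mg(OAc)2 buffer. Exponential fits to normalised per-tile medians gave kobs, and weighted Michaelis–Menten fits gave kcat and KM.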

glucosamine-6-phosphate [2] = variants of: B1; test: KM; higher = weaker cofactor use; RNA array
In short: as §1

glucosamine-6-phosphate [3] = variants of: B1; test: self-cleavage kobs at 40 uM GlcN6P; higher = faster cleavage; RNA array
In short: as §1

glucosamine-6-phosphate [4] = variants of: B1; test: self-cleavage kobs at 160 uM GlcN6P; higher = faster cleavage; RNA array
In short: as §1

glucosamine-6-phosphate [5] = variants of: B1; test: self-cleavage kobs at 640 uM GlcN6P; higher = faster cleavage; RNA array
In short: as §1

glucosamine-6-phosphate [6] = variants of: B1; test: self-cleavage kobs at 2500 uM GlcN6P; higher = faster cleavage; RNA array
In short: as §1

glucosamine-6-phosphate [7] = variants of: B1; test: self-cleavage kobs at 10000 uM GlcN6P; higher = faster cleavage; RNA array
In short: as §1

Variant	kcat (glucosamine-6-phosphate [1]) [s⁻¹]	KM (glucosamine-6-phosphate [2]) [µM]	self-cleavage kobs at 40 uM GlcN6P (glucosamine-6-phosphate [3]) [s⁻¹]	self-cleavage kobs at 160 uM GlcN6P (glucosamine-6-phosphate [4]) [s⁻¹]	self-cleavage kobs at 640 uM GlcN6P (glucosamine-6-phosphate [5]) [s⁻¹]	self-cleavage kobs at 2500 uM GlcN6P (glucosamine-6-phosphate [6]) [s⁻¹]	self-cleavage kobs at 10000 uM GlcN6P (glucosamine-6-phosphate [7]) [s⁻¹]
A39C U55C	0.00774 ± 0.0022	3010 ± 1100	0.000127 ± 1.4e-05	0.000325 ± 5e-05	0.00144 ± 0.00027	0.00268 ± 0.00051	0.0067 ± 0.00081
G37C A64U C68G	1.68e-05 ± 1.7e-06	29.1 ± 13	–	–	–	–	–
A39C G40U	0.000135 ± 1.1e-05	1690 ± 480	–	–	5.01e-05 ± 1.7e-05	7.56e-05 ± 9.8e-06	0.000118 ± 1e-05
A39C G40C	0.000145 ± 1.6e-06	1590 ± 47	–	–	4.2e-05 ± 9e-06	8.75e-05 ± 1.8e-05	0.000126 ± 1.5e-05
A39U G40A	0.00855 ± 0.0042	–	0.000239 ± 2.5e-05	0.000664 ± 0.0001	0.00165 ± 0.00021	0.00537 ± 0.0012	0.00952 ± 0.0017
G37A G43A	2.89e-05 ± 3.1e-06	–	< 1e-05	< 1e-05	–	–	2.52e-05 ± 8.5e-06
A39U U46C	0.0117 ± 0.0022	2780 ± 640	0.000154 ± 1.5e-05	0.000743 ± 0.00014	0.00284 ± 0.00046	0.00541 ± 0.0019	0.00883 ± 0.0013
A39U C58A	0.000543 ± 0.00013	–	–	–	–	8.13e-05 ± 1.4e-05	0.000214 ± 2.7e-05
A39U C58U	1.89e-05 ± 1e-06	–	–	–	–	–	–
G37A G40A	0.000755 ± 0.00012	2830 ± 820	–	3.73e-05 ± 1.3e-05	0.000135 ± 3.7e-05	0.000366 ± 7.6e-05	0.000583 ± 9.3e-05
G38C C68A	1.39e-05 ± 4.4e-06	–	< 1e-05	–	–	–	–
A39G G40C	9.61e-05 ± 1.3e-05	–	–	–	4.2e-05 ± 1.4e-05	0.000101 ± 1.8e-05	8.35e-05 ± 1.4e-05
G37C U47G	1.63e-05 ± 2.9e-06	–	–	–	–	–	–
A39U A64U	4.75e-05 ± 1.7e-06	537 ± 120	–	–	2.64e-05 ± 9.3e-06	4e-05 ± 7e-06	4.46e-05 ± 5.4e-06
A39U A64C	0.000269 ± 4.6e-05	3410 ± 1100	–	–	5.07e-05 ± 7e-06	9.58e-05 ± 1.3e-05	0.00021 ± 1.9e-05
G37A G59U C68G	< 1e-05	–	–	–	–	–	–
G40C C70A	0.000174 ± 1.6e-05	516 ± 140	–	–	0.000105 ± 1.9e-05	0.00016 ± 3.8e-05	0.000154 ± 2.9e-05
A39G U56A U57G G60U C67U C70U	1.31e-05 ± 5.3e-06	–	–	–	–	–	–

Variant	kcat (glucosamine-6-phosphate [1]) [s⁻¹]	KM (glucosamine-6-phosphate [2]) [µM]	self-cleavage kobs at 40 uM GlcN6P (glucosamine-6-phosphate [3]) [s⁻¹]	self-cleavage kobs at 160 uM GlcN6P (glucosamine-6-phosphate [4]) [s⁻¹]	self-cleavage kobs at 640 uM GlcN6P (glucosamine-6-phosphate [5]) [s⁻¹]	self-cleavage kobs at 2500 uM GlcN6P (glucosamine-6-phosphate [6]) [s⁻¹]	self-cleavage kobs at 10000 uM GlcN6P (glucosamine-6-phosphate [7]) [s⁻¹]
G37A C70U	0.00286 ± 0.00083	3800 ± 1500	4.27e-05 ± 6.4e-06	9.55e-05 ± 1.5e-05	0.000383 ± 4.9e-05	0.0018 ± 0.00029	0.00199 ± 0.00021
G37A C70A	1.38e-05 ± 4.2e-06	–	< 1e-05	–	–	–	–
G38U G66U	< 1e-05	–	–	< 1e-05	< 1e-05	–	–
A39U G41A	0.00029 ± 1.6e-05	651 ± 93	–	5.88e-05 ± 1.3e-05	0.00014 ± 1.5e-05	0.00025 ± 2.7e-05	0.000257 ± 3e-05
G40A C71U	0.0789 ± 0.028	3660 ± 1500	0.000981 ± 7.3e-05	0.00194 ± 0.00048	0.0113 ± 0.0013	0.0322 ± 0.009	0.0591 ± 0.0079
G38C U49G C68A	1.34e-05 ± 4.6e-06	–	–	–	–	–	–
G40A U45A	0.00316 ± 0.00068	510 ± 160	0.000251 ± 3.8e-05	0.000585 ± 0.00027	0.00157 ± 0.00029	0.00221 ± 0.00084	0.00427 ± 0.00099
G38C G66U	< 1e-05	–	–	< 1e-05	–	–	< 1e-05
G38A G62U	< 1e-05	–	–	–	< 1e-05	–	–
G37U C58U	< 1e-05	–	–	–	–	–	< 1e-05
A39C U46C	0.00261 ± 0.00017	2740 ± 280	3.41e-05 ± 9.8e-06	0.000168 ± 3.9e-05	0.000488 ± 6.6e-05	0.00122 ± 0.00023	0.00206 ± 0.00025
A39C A48C	7.62e-05 ± 2.8e-06	3440 ± 350	–	–	–	3.1e-05 ± 1.1e-05	5.69e-05 ± 9.4e-06
A39U C68G	0.000151 ± 1.6e-05	998 ± 310	–	–	5.37e-05 ± 7.8e-06	0.000126 ± 1.2e-05	0.000127 ± 1.3e-05
G38A A52C C70A	1.15e-05 ± 3.5e-06	–	–	–	–	–	–
G37A G66A	0.00157 ± 0.00017	4290 ± 740	1.72e-05 ± 8.5e-06	6.39e-05 ± 2e-05	0.0002 ± 5.4e-05	0.000527 ± 0.0001	0.00114 ± 0.00018
G37A G66U	0.000462 ± 0.00011	3940 ± 1500	–	–	5.56e-05 ± 1.3e-05	0.000217 ± 3.4e-05	0.000301 ± 6.5e-05
A39U G66C	0.0109 ± 0.0036	6420 ± 2800	5.39e-05 ± 1.3e-05	0.00046 ± 0.00012	0.00112 ± 0.00026	0.00343 ± 0.00096	0.0065 ± 0.001
